Laboratory results: article PMC8565321

Target: BLM (UniProt P54132)
Experiment: co-IP and western blot
Conditions: reference: wild type USP37; sites S114

binding against the reference: weaker
Substance: USP37 (from UniProt Q86T82) S114A
